Test results from article PMC5882242, “Functional roles of Mg^2+ binding sites in ion-dependent gating of a Mg^2+ channel, MgtE, revealed by solution NMR” (eLife, 2018).

Target: the molecule itself
Assay: SEC; Superdex 200 GL 10/300; 20 mM HEPES-NaOH (pH 6.1), 100 mM NaCl, 1 mM DDM; BSA monomer, dimer and tetramer as standards; MgtE in DDM micelles

B1: full-length MgtE from Thermus thermophilus (natural protein, UniProt Q5SMG8 1-450, looked up)
chain: MEEKLAVSLQEALQEGDTRALREVLEEIHPQDLLALWDELKGEHRYVVLTLLPKAKAAEVLSHLSPEEQAEYLKTLPPWRLREILEELSLDDLADALQAVRKEDPAYFQRLKDLLDPRTRAEVEALARYEEDEAGGLMTPEYVAVREGMTVEEVLRFLRRAAPDAETIYYIYVVDEKGRLKGVLSLRDLIVADPRTRVAEIMNPKVVYVRTDTDQEEVARLMADYDFTVLPVVDEEGRLVGIVTVDDVLDVLEAEATEDIHKLGAVDVPDLVYSEAGPVALWLARVRWLVILILTGMVTSSILQGFESVLEAVTALAFYVPVLLGTGGNTGNQSATLIIRALATRDLDLRDWRRVFLKEMGVGLLLGLTLSFLLVGKVYWDGHPLLLPVVGVSLVLIVFFANLVGAMLPFLLRRLGVDPALVSNPLVATLSDVTGLLIYLSVARLLLEAV
notes: MgtE, Mg2+ channel of Thermus thermophilus, full length (residues 1-450: cytoplasmic region 1-263, transmembrane region 264-450); plasmid with N-terminal His x 6 tag and HRV-3C protease recognition site; Dimer in DDM micelles by SEC; theoretical M.W. 50 kDa a subunit; The construct is described in Hattori et al., 2007a; also called wild-type MgtE; WT; source: E. coli C41 (DE3), solubilized in …
stoichiometry N: 2
